Tests used:
[1] = target: hsEGFR (human (printed only as 'hs')) (UniProt P00533); test: two-colour flow cytometry after 48 hours, b-hsEGFR/SA-PE and Fc-specific AlexaFluor 647
[2] = target: hsEGFR (human (printed only as 'hs')) (UniProt P00533); test: two-colour flow cytometry after 24 hours, b-hsEGFR/SA-PE and Fc-specific AlexaFluor 647

percent of cells within the marker region M1 [1]: 43.4% | percent of cells within the marker region M1 [2]: 36.4%
Substance: antibody matuzumab (IgG molecule) secreted by yeast and displayed through the ZZ domain
